± gives the uncertainty stated by the source.
assay: amyloid nucleation score (Sup35N fusion, yeast selection) (log enrichment); library NNK2; higher = more nucleation; inactive = no reads after selection
Method in brief: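 Growth for 7 days at 30°C on medium lacking adenine and uracil followed a 24-hour induction with 100 μM copper sulfate of psi-negative yeast expressing peptides of 20 random codons fused to Sup35N. Input and output plasmid inserts were sequenced with Illumina, and sequences with under 100 input reads were excluded. Nucleation score is the DiMSum log enrichment of output over input reads, centred on the mode score of non-aggregating sequences.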

Row | Substance | amyloid nucleation score
1 | QFLSYCFWIGNPLVNFINAN | 5.874 ± 0.039
2 | VLRSVRIFLDN | 1.3 ± 0.15
3 | WSGLFVKKNVVFRVRNGVT | -0.089 ± 1.1
4 | VKPVSVFL | -0.11 ± 0.63
5 | GLWDSRMAFSRTS | 3.57 ± 0.078
6 | LCMQSVSGALSPSARRRLCV | -0.235 ± 1.1
7 | FHGPKYMSILRGELICKAPG | inactive
8 | GSLMRFDSWLGGTIASS | 0.402 ± 0.66
9 | GKQYPFHFI | -0.583 ± 1.1
10 | IDLTHECVRVWVDSKLLSPF | -0.742 ± 1.1
11 | HSLLSLLVVFYLQDRSRVIC | 0.848 ± 0.13
12 | INRCMLIPTRFVVAYSWKCV | -1.03 ± 0.78
13 | RSFMVRRFVNANIEIMIRRI | inactive
14 | LFKMCTSVFRVCSAGMMELG | 0.35 ± 0.27
15 | KPNPFLVLLLRT | -0.123 ± 0.46
16 | LHTWSVSLVYYNVFYLSSRA | -0.417 ± 1.1
17 | WLVIPWRCSNDRHIWLWELQ | 1.55 ± 0.53
18 | MGRTHRTTTPGSRFYTSTAF | -0.57 ± 1
19 | FLGEVCQWDRMIVARVKATR | -0.063 ± 0.29
20 | LDWPDLENQAVVVNTWVSE | 0.279 ± 0.5
21 | LLRVDRCCWDN | -0.011 ± 0.54
22 | VVENRALLYGGFVR | 0.135 ± 0.63
23 | RISLERGNDFVTWVVYMKWA | -0.081 ± 0.34
24 | ISHLRVLEQSLLAEWADNFP | 2.08 ± 0.097
25 | LLHSWSYRCV | 0.039 ± 0.77

Row | Substance | amyloid nucleation score
26 | VYLCARKGM | -0.287 ± 0.79
27 | DVCYCRKPTINALRWLMMYA | -0.27 ± 1.1
28 | YSERSTEGQ | 0.698 ± 0.26
29 | SDRQHNAYNFLFVL | 4.6 ± 0.051
30 | QLPNPKNMISIGNYWKQRSF | -1.47 ± 1.1
31 | QVVDGWWGNYFIV | -1.92 ± 0.78
32 | MSCTRDSLCLNFLVILFTTQ | 3.03 ± 0.065
33 | VFNSTFANLW | 2.6 ± 0.092
34 | SWLIDLTRHSFLI | -1.25 ± 0.78
35 | MGQTVSRPWQAGSLYGANPC | 0.926 ± 0.45
36 | TVVVWA | 0.19 ± 0.31
37 | LNMTSFAVKLEANYL | -0.565 ± 1.1
38 | FARGNINLMVVFVFFDS | 5.766 ± 0.049
39 | TFMKGTVIT | 0.759 ± 0.74
40 | QNHVRYQGRLPGSCLGCKYR | -0.488 ± 1
41 | MYPSG | 0.321 ± 0.49
42 | DARFLPVVLRKKTDSICYVN | -0.177 ± 0.79
43 | VRDVKLLPKMVGSNIIGSVL | inactive
44 | LLYTTCSFGYLMQKFVL | 1.58 ± 0.31
45 | SYRRKYSCRLESINTCAVLC | -0.302 ± 0.47
46 | LSRQGRLESVKDGRSMWVSG | -0.283 ± 1.1
47 | SKEVAAGCSLGIRVVMFKR | inactive
48 | AVCTESMLWS | 0.057 ± 0.16
49 | VAILIMHCGAGSCRQMLMDS | 0.305 ± 0.45
50 | VIDVKFVGYILQVYVGVSFG | 0.026 ± 1.1

Row | Substance | amyloid nucleation score
51 | LTVLFVLTVCFNVAMGCCLS | -0.223 ± 0.76
52 | YFRDRSFKKIILLPNWFMNT | inactive
53 | LASTVNIEMVSVHRDWCVWM | 5.326 ± 0.029
54 | ILFWFRT | 4.9 ± 0.043
55 | FLVHCNILALNTCHLVYL | 5.07 ± 0.089
56 | VDTGEVNTF | 1.76 ± 0.086
57 | IGLTLHMRRVVGAKSFKMPL | 0.29 ± 0.77
58 | QSETN | -0.264 ± 0.29
59 | ASGVYHDSFRRLCCMGDLSC | -0.121 ± 0.18
60 | SQMSGSFRRSNGWIAV | inactive
61 | DTRKFLDKLYA | -0.13 ± 0.44
62 | VVLQTKHSLAISGQQLIPMA | 0.32 ± 0.32
63 | VLYFLLLFFRD | inactive
64 | YRSFCWEQ | -0.581 ± 0.56
65 | TCDKLGAVVMSLLECVNEAP | 0.205 ± 0.77
66 | NRADGDKFSSSPSPTWKYME | -0.081 ± 1.1
67 | RYTSVYSGRSENG | inactive
68 | CWDCKLPHRPGVFMRNNHFK | -0.015 ± 0.45
69 | DIDGWCTIYMDIVYMKTCPY | 0.262 ± 0.56
70 | KKQSRIHLSTSKNRFTWNTW | 0.007 ± 0.35
71 | KMVYGLQGWLGLGSTVFWSP | 3.2 ± 0.13
72 | AYEGFISYLIYLSIRNSSPC | inactive
73 | NIGKMLRALFDMSNVRT | -1.17 ± 0.39
74 | RWLTGMLDVVPYTFCEEV | inactive
75 | WRKCKLFFTLYHLHTVELWI | -0.826 ± 0.49

Row | Substance | amyloid nucleation score
76 | PSQHSWGWARCLQDCDSMPG | 0.591 ± 0.34
77 | CSNLSV | 0.167 ± 0.28
78 | DSYMKRLWCRAARDRTESVW | 0.159 ± 0.46
79 | WWVPCSLYWYSAEGPGLARA | 0.007 ± 0.31
80 | YTNAFRPRSVRLTVIRIGQY | 4.07 ± 0.11
81 | RANGSSYEREVA | 0.819 ± 0.47
82 | IKTSDYNHFRYWSKRPYVSW | -0.738 ± 1.1
83 | WWSSDS | 1.73 ± 0.078
84 | IVIGRQCPTWFDVARYR | 1.07 ± 0.34
85 | HVADTGLIMQYVVSGLRVAG | 0.602 ± 0.22
86 | RTARPILDPC | inactive
87 | VPKAWTVWAQVPINWSARQA | 0.737 ± 0.62
88 | MLANTYDSEPSRHRCVGKPI | 0.754 ± 0.44
89 | TGRFLEVREQRRDARVEMSR | 0.183 ± 1
90 | RATPTSLSIAMFCLFGHALL | 5.87 ± 0.079
91 | KRDPLFRVLGT | 0.071 ± 0.79
92 | VQDYFFSCFATRSV | 3.26 ± 0.059
93 | KTAFKSNTEITSPLVTVLAL | 0.555 ± 0.33
94 | MRHILCISSVGRFNFRCCFK | -0.038 ± 1
95 | MVVDFVVYITVCSFRFKQTF | 1.97 ± 0.18
96 | PMEWKPALPKTIVADARMRG | 0.48 ± 0.3
97 | PYSFSV | inactive
98 | QHKDLYLW | inactive
99 | LVNNGINPPFGPSSLSRGMK | -0.31 ± 0.4
100 | KNNIWVIYPFVNG | 6.434 ± 0.064

Row | Substance | amyloid nucleation score
101 | YLCPTSGKLCGSSGKTMVTV | -1.18 ± 0.48
102 | QFWHKSVSTCLWCCSVAGSW | 8.73 ± 0.071
103 | VTIYGVLSRLNDCFFRGVWD | inactive
104 | NFLWPCRIHVQGCIHISDTD | 6.171 ± 0.045
105 | LLARVYKTICCMNWGFRNE | 2.06 ± 0.1
106 | RNADI | 0.343 ± 0.46
107 | QRYCRA | 0.94 ± 0.23
108 | TFGLHIHKPRMPPHGPWFSL | -0.172 ± 0.34
109 | IATAKTRQGFPLMSTLPAIV | 0.37 ± 0.5
110 | PSNTIYHFIAELNEYETPRF | 0.426 ± 0.15
111 | FSGFSLRSPTTRGGVCGKTV | 0.575 ± 0.47
112 | CFVKRLHVLWLSKTVCRAVL | 0.113 ± 0.21
113 | ECTYNKSWHQTWVTTRHGSS | 0.613 ± 0.23
114 | SVVGRYEYIILGTRAPGTSR | 0.272 ± 0.5
115 | AIYKDRGWGATGHVFRILGR | 0.752 ± 0.57
116 | FDTRITMMCALWTFPAT | 7.15 ± 0.079
117 | ILVTAYTFTMVRSDEGCRKV | 3.63 ± 0.085
118 | RLFYGCITGIVVSSILGVCM | 2.47 ± 0.21
119 | GLTASL | -0.375 ± 0.49
120 | WHDIQALTSMDVGRYLGDAI | -0.696 ± 0.26
121 | ILYGSGVFSSG | -1.17 ± 1.1
122 | IMRVMPICRFVII | 1.25 ± 0.12
123 | SNLNPVHSDLLMYEMPCNLT | -0.492 ± 1.1
124 | GKRVLRWTNWMAR | 1.83 ± 0.29
125 | IVCTYFHSTPSCYRLASNWY | 0.284 ± 1.1

Row | Substance | amyloid nucleation score
126 | GGQLGGPWPANSLYNVTAVT | -0.075 ± 0.31
127 | AIYLWSF | 4.85 ± 0.054
128 | LNNYSSGFRGMIVFFVVVYV | -1.06 ± 0.61
129 | AGMMFKR | 1.71 ± 0.37
130 | GVVARSIVAGNLALIIRRRM | 0.253 ± 0.42
131 | TCWSFECTIEACLLDHVSTR | 5.97 ± 0.081
132 | RTSSL | -0.336 ± 0.49
133 | IDFVVFFT | 1.09 ± 0.27
134 | MHGREFWRCTSWSSLVNLGV | 0.998 ± 0.19
135 | IRSLMSR | 2.32 ± 0.061
136 | RINGRRWGFTWVASGLEYFG | 1.87 ± 0.11
137 | PYQSTCSDRSFYVCVCELHW | 0.241 ± 0.8
138 | GLSMCIWCRSIQMTTLGSRY | 0.365 ± 0.36
139 | MMLSLANNHGSL | 0.174 ± 0.28
140 | VRFPTSLFSAEQCTPALCSV | 0.066 ± 1
141 | AFGKACPGMCMTKFTACTNR | 0.569 ± 0.13
142 | NFNYFGWISQEIPPLLAGLS | -0.509 ± 1.1
143 | RDLASSSS | -1.1 ± 0.41
144 | IARVDLKFMESIRSHMV | 1.71 ± 0.56
145 | SEAKGYLIWGFLWLFGYDFE | -0.802 ± 0.63
146 | AYINRHVEWRCTVRTVALSS | 0.664 ± 0.38
147 | CLGNVCNSFNWLDVRACVWR | 1.52 ± 0.23
148 | YNQFNFFTG | 6.913 ± 0.045
149 | FIYIVAFPIREISGLSNL | inactive
150 | MRKLSKLLTWHPRHA | -0.517 ± 0.54

Row | Substance | amyloid nucleation score
151 | WWLMWS | 0.691 ± 0.53
152 | SRTRCDIWFNLRTFMVRVRK | -0.46 ± 1.1
153 | GSVVHLQSCNISLIAYGLHG | 8.298 ± 0.054
154 | YNSSCCSERSYLLSVFRISR | 0.178 ± 0.17
155 | IREYHMFDGHMRDRCFGQVK | -0.048 ± 0.65
156 | MPNNVPEEN | 0.216 ± 0.62
157 | IIEIRAASGPVGFSDINMF | -0.459 ± 1.1
158 | HGGSVWRRHSVFNAICISSS | 1.11 ± 0.18
159 | LPSVDQTATS | -0.481 ± 0.35
160 | RYNRN | -0.195 ± 0.36
161 | VLSLHDSVLLYRSAGIRYGW | 5.03 ± 0.058
162 | NGRIICNESMSLYKSEV | 0.842 ± 0.8
163 | PPNVLDCFNVL | -0.501 ± 0.64
164 | FDLVGDGYCNYALEYTRLNM | -1.15 ± 1.1
165 | YCYEPLTC | 0.508 ± 0.49
166 | VRYKSYMDVS | 0.87 ± 0.48
167 | SPLRALLTHVWRKQHTYFSN | 3.14 ± 0.08
168 | FYAIGFLIGGLHFWDWHIWF | -0.189 ± 0.64
169 | RSGYGWTVLFERLSKHCEFK | -0.301 ± 0.39
170 | SVLMGG | -0.223 ± 0.54
171 | ALSSVFYIDFHFDYLYDVTL | 2.72 ± 0.2
172 | PRLRAAG | 0.758 ± 0.26
173 | LDWRTQFLCV | 1.19 ± 0.61

Source: the supplement of paper PMC12042874
